# Data taken from the DeepSol protein solubility set.
# Assay: soluble on expression in E. coli; label from the status in PepcDB or PDB records
row,Sequence,soluble on expression in E. coli
1,MHIKSIHLDGFKSYQKHTDILDFSPTFNAITGYNGSGKSNILDSICFIMGINKLDNIRAKSMHELISHGGTKAIVQVRFDNTDKRCSPFGMEHLDEIVVQRIITAQATGKGCATSYTLNGHAATNGKMQDFFRGVGLNVNNPHFLIMQGRITTVLNMKPEEILGMVEEAAGTKMYDQKKKDAEKTMFLKDAKLKEVDRIFQSSIDPRMVKFREDRKNMVEVTRLKKLKENFSRKYEAFQYFQTCEAVKKSAKEIEDAKKGIEDLGEKFNQLDLDLKNKEDEKKKMEESRDDQHEEAALSAAHLSKQSIMLQKETVKNQLVETINKLKKEGEQINKSLSKDREVLDAKRKEHEDSKAANSKDIQSQSDDEALVTKYRNDLESLTRGTIANDKGEHVSIESEIQSCKSTASQMSSGITAAKKRGERLHNQIKHLEGEKATLSARSKSDIGSADNYQKEVDEINKQLQLLGFNIDADTEKREHAAKLHESITKLKDMDTRLLNSYKDGRYALNYQRPPLHIDKFDEKRDVFGYVAHLIKMKPGCEQFAVAADIALGGVLGNVVVSTQDIARILIDGKAFTSRKTMIPVSENARNASSYNTLPDVKLRRAKEIAEKYNDTVTKMIDLIEYPDFISNTILNAVGQILVVDSLDVAREIAYDEVAKTRMITRRGDDVRTNGIMTGGYNDPGNKPALIALEPMYARRPQIEAQQRELDALNRELQLTEASSQKCRDLNNQLATAMRKLAQVKTNINNSEFGIVVRDLKVHSEEYEKNQAEIEATVKTLKDVEDKIKTLESMKNKDKNSQEKRKKELTALLQKAEQTVAQNKNRGEKARREVMLLQATVEEMEKTIKKDEGIWEQKKKECDELEEKLPNAIAALKDAELEQKAAQAKLNDLKNNQRQISTRLGKIAKECDALIREKAKTKSKREEKEKELTSLQQSEASNRKEARSKLKKFEWLSDEEAHFNKKGGLYDFEGYTVSKGKDEIKELTDKIETLERSCCIQNVSNLDTCEAKVLDIKNKRERITEDFNMLKKTIATLDKKKVDELIRAHESVNKDFGQIFNCLLPDAHASLVPPEGKTVCEGLEVKVSFGGVVKDSLHELSGGQRSLVALSLILAMLKFKPAPLYILDEVDAALDLSHTANIGMMIKTHFHHNQFIIVSLKQGMFSNADVLFQTRFADGHSTCTRLNGGDIAVLCQDKVLQAQALELTDAGKAKKDAAAKKGAQKNDKEPPKKKPIVVDDDDFE,not soluble
2,MHKPLRIATVTATCAVAGAVLYTTGAASAGQSTANSTHEPYNIGVLAKDIDAYYGTTLDADGVYQASPDSPYAADLARVDAAAKKQIDRAARTAHHKHTRPAVVFDIDDTLLLSLDYEKKNNYGYDGATWAAYVDRADRPAVPGSPELARYADKKGVEVFYNSGLGEAQRAAAVENLKKAGADVNLDASHMFLKDKANPPSYLAHCATPGSWTCTTVQYKAGTRRHIERDLGYDVVANFGDQYSDLQGGYADRTYKLPNPTYFVE,soluble
3,MHKVLVPFDGSEHAMRALGYVIELSGDLNKPLEVHVLNVQASPIDYSLYLAPDMIDGVKAGLKNEGKRVLDDAIALLAAAGVPFQAHVDLGNVAEQVEAEVQRLGCDAVVMGTRGLGNFGGLLLGSVATRVIHEVSVPVTLIK,not soluble
4,MHLDVLDLHNFYYRTPLGRVAQRAVRDQVQKLWPDAQGQTVAGFGFSVPLLRPYLEQARRLIALMPGPQGVMPWPVGMGNVSVLCEEGAWPLSTGMVDKLVMLHGLETSEHPSEVLSEAWRVLGPGGRALFIVPSRSGLWARRDGTPFGFGRPYSLNQLEAQLKRHDFTPERALAALFAPPLHQRFWLKTADFWETGGRRFAPWLVGGVLIVEASKQVYAPTRTGLKAAVSKPLRVLEGIPQPLPAPAGRTSDGSCGCPGGC,not soluble
5,MHMEDFIQFFSGSNLSIDKANFDQFGLKAKIKHYQKGQLLITQGQPAPKLFFLIKGMVRYMSVSATGKEFTQSFAFAPGISGSTRAMTRNANALFSIEALDDVICLEFEWHVFFDQMQSQPGFLAAYNRLLENMFIKKEEREFAFVQQSAEQRYLTFLDMNPQLRDKISLKMIASHIGITPIALSRIRNKLK,not soluble
6,MHMELRMVGRLSWITLFTLFLVGCSSAPDDSSPHSQVNDPLESFNRQMWTINYDYLDPYVVRPVSLFYVGYVPKPVRSGIANFLSNLDEPASMVNNLLMGNGTKAVDHFNRFWINTSFGLLGLIDIASEAGIKKYDDKAFSDAVGHYGVGNGPYLMVPGYGPYTVREVTDVVDGMYFPLAYLNIWAGVGKWALEGMETRAALVSQEALLQDSPDPYSLARDAYLQRQAFKAEIQVDDYDPEEEEYLDEYLNEGL,not soluble
7,MHQQLMVMIDRKRRRSFIMMRSMFSGVSGLQAHQTKMDVIGNNVANVNTVGFKSSRVTFQEVFSQTLKGASSPDPTTGRGGTNPMQVGLGLGVATIDTLMTRGSVQRTDNPTDLAIEGDGFFIVKGGSSDTFKFTRAGNFGIDRLGNLVTGSGLNVYGWQSYTKLPDGTYKFDTESQIEPINLYSDDVNKNKRMIAAKATTYAIFEGNLDASYSIYSSAASGTSSNNRFTMPVTVYDSLGNSYKINISFWKTDVTGGVTTWTWQVDSGNGVTASGATGTILFDDQGQVIESSAVTPSITIIPDSSVGSQNINVKLDFSRLTMYAADSSAKATNVDGYPAGSLVTFSIGSDGMIMGIYSNGQQQPLGLIALASFDNPAGLEKVGENMYIPTSNSGEFKKGVKAGTEGVGTLSPGTLEMSNVDLSKEFTEMIITQRGFQANSRIITTSDEMLQELVNLKR,not soluble
8,MHRDSTDIEVKRASELPENLPETTCAFANMPSGGTIILGVDENRDFEVVGVADAAALEEALISQTRNSVKPAPMIECETFTLEGKQVLVAQVNPVPLQNRPAHYRGVAYLRQSDGDYGMNDADLALVEIQKLSHSENFQFDVVPVLNSSTRDLDSVRVKSFLEAARAGSRILSKKIDDQELLETLNIVTVKGAAALEHHHHHH,not soluble
9,MHRGITVQTSDLDDGVTGVVGKVYIEASPKHVWAAITDYNNHKSFVPKLIDSGLISDNGREQVMFERGKTGIFLFRKTVYIKLSLQGEYPKRLDFHQIEGDFKVYEGDWLIERASDGKGSILTFRAKIKPDFFAPAMFVRKVQQNDLPLEHHHHHH,soluble
10,MHSITTALENLTRQLSQEIPATPGLCVFDAPFPLNDAFDALSWLASQSSFPQFYWQQRNGDEEAAVLGAITVFSSLDLAQRFLRQHAQPDLRIWGLNAFEPKEGYLLLPRLEWRRSGGTATLRLHLHSDVSLRDDARQAKAFLASLVGIKPVPALRLSLTSEQHWPDKDGWVKLIQQATHTIAQEAFDKVVLARATDLQFSRPVNAAAMMASSRRLNLNCYHFFMAFSADTAFLGSSPERLWRRRETALRTEALAGTVANHPDNHKAWQLGEWLMKDDKNQRENMLVVEDICQRLQNCTHSLDVLPPQVLRLRKVQHLRRCIWTALNQADDTLCLHQLQPTAAVAGIPREPARCFIEQHEPFEREWYAGSAGYLSTRQSEFCVTLRSAKVTANVVRLYAGAGIVRGSDPEQEWQEIDNKAAGLRTLLQMDA,not soluble
11,MHSIYKFSTCNVHRESPLRVRVEDLTVAYNGEPVLSGVNLEFRGPGLVQIIGPNGAGKTTFLKAILGLIKPARGRVFLDGFEATGRPEMVGRYAGYVPQNPSAPKLSPMTVREFVETSLRLRGVTRARERAVEVLHTLGIRGEVLESRLWELSMGMLQRVFIARAIAPDPKMLVMDEPLASVDPAGRMEIARIIAGLARERLVLMTSHDPSLLLGHTDIIVVINRDLIASGPPEEVYREDVLRRVYGESVARGLVLAGEGGAHG,soluble
12,MHSLGWDIWNAVQPKEFYKGFLRRSIRPDGRKLSEYRDITLRKGPLVTTVDGSANASIGRTVALIGIQPKVIEWKETKKGSARSIVGQHCSLQVEFPSVCHRDIRSGRTLEEALLVKESLENVLEQILERDSFCIVPDKFYWHLQITAYCLSLDGNVIETFLLALYGALLDLQLPVVRASTSGDLLTLDPNQPKVTLPMKKLEDWPWVVPIGLFWNGPSEYYAVLDLSEEEENNMSSIVWIWNSQRGDKLAISKQKVGPLSVNILQEVLQLVKAHIDEVILRLQHGK,not soluble
13,MHSQQRPNPQMNRHPYGTPGSAPQMRRPGGFAGQPPQMHGPRMVAPPAAPLPKKKKYADKCIHPKIRELEPDAENYMALLASEQKLDSTLSRKKLDIQEALKRPSKVKKRLRIYISHTFIEEKQPEKDTDEASLPMWELRVEGRLLDEQPPAPAIPGQRPVPKRKFSSFFKSLVIELDKEMYGPDQHLVEWHRTPQTNETDGFQVKRAGDRPVKCRILLLLDNHPAKFKLHPRLAKVLGIATETRPKIIEALWQYIKTHGLQDPQERDIINCDTFLSQCFGVNRMRFMEVPNKLHQLLQQTDPLEFNHIIQRPKEGQEQVSTCYDIDVEMEDPVKQFMHTFVHSPGLANDIQTLDQKCYDIIEQINELKTRRDFYARFYTEPAEFIKSWVMSQNSDLKTMNELSGDLEAERFAESYVRPETEEGVQRYMFQKVNQKRHELEQSLGVRSN,not soluble
14,MHTDMKSVGTVSMQEAPLLEIAVVGHTNTGKTSLIRTLLRSTSFGRVDDAAGTTRHVERATIFAGSEAVLNLHDTPGIEDVYALQDKLHLIATRNKRSTQSELLEKFVAATPLNDPLEQEAKVIRQVLRSDVLLYVIDVREPVLEKYLIEIEILGKAMKPMIPIFNFTAAHRAELDLWRKKLAAFNIYASLELDTVAFAFEAEKRLYQKIQSLLEVHYTRLQRLIDHRARVWNQLCMSAARRIAGLIITTACYREHTGDERSSAGDTSSAAIRLQDFIRQAEQHCLVDLLKMFNFTDKDIELQKIPVQNGYWQLDLFAPGVLKAYGLDIGSAALKGAAAGAGIDLMTGGLSLGVASMLGALAGTGWSTFRRYGKEIQAKIRGTRWLCVDDSTLQLLYLRQRQLLDKLMNRGHAACHTDQVSQQPERGELPDGWQQIIDMLRQNPAWGRSPGLHTDDTRQYSSIEKRLIDALLKNPAL,not soluble
15,MHTFYLPFILSLSMPPKKKSSKTIYKFPQSFHDLPKSLSKNYYQPEPESIINDQIIIIKNFFNKDLCNELIKSFETQLNMETTPLIKSKEYAARFNDRSSMNDLLSANILWQYLQKILLDNPYNDEDLKEINQIFQDAVGLNPQLRVYRYTRGHHFGKHYDDSVICPIPPQGTKKGYTTWTLLIYLTGDEEFKGGGTIFYPEIKNIKPLNIHPNKGMALLHKHGDDCLKHEAEMVANGAKWVLRSDVVFPI,soluble
16,MHTQYFPNRRPGRIQPLGIQQNTIYVYVKVKHVLEFYAIDIRLPYHWHQIAKLNISEMSYTFSTLSPDFRYIYVLFLRVAREMATFAVQRFDLENNGTADLFLLNAAEELYRVFEVPLDSVTLRCDSGGQLVLYDRSIVQGEIPFWTIRLEESTKTFRILKNSIPTAGDDTERNSALFTIAVDPVNRCFAKLMSPRTMLVYTEERKRWVEYHIPVEQSLQDIFGSDGFPVEEIRGIRETFGTHGHRMGALQTRLTFHDLNDVLVARCLHLHWNTTATVEFDHVNREIQVRLLAKFPLDDEVTRMFYLIASKEHHVFLGVYDTAIVHIKSPKLEEIVGWRMQKMLMRDGHKDEVLQISNYRQLLALALTKYADKDEDLAENLKNLGIEPPRKKLVVMEIELD,not soluble
17,MHTSLMSYNQNMIPSGDDRPVFPTIDLFANTSLEELQQSLCAAVANYRDFLTRKILPFQQSWVVRVLSESGLDEETLRAIKSCVFTPCCSIPGAVQPDRICQHDSPIYIYTSLNLLSQYVEGKTLLRCYRKFVLASSLPPYRTDIPAEELKNVLNSILPGAYSMPHAVSCFVAILPSKKFTISMSKITTRGGAEEHFVVFSREENDIIPYDIVAVGKTLFSQSDEEFGLPNLSFDELQNLISTLEHHHHHH,not soluble
18,MHYVTPDLCDAYPELVQVVEPMFSNFGGRDSFGGEIVTIKCFEDNSLVKEQVDKDGKGKVLVVDGGGSLRRALLGDMLAEKAAKNGWEGIVVYGCIRDVDVIAQTDLGVQALASHPLKTDKRGIGDLNVAVTFGGVTFRPGEFVYADNNGIIVSPQALKMPELEHHHHHH,soluble
